Laboratory results as given in patent US20110263454A1, “Methods of Identifying Functional Characteristics of Promoters, Transcription Modifying Proteins and Transcription Modulating Agents” (Salk Institute for Biological Studies, priority 2008, published 2011).

How the values were obtained:
[1] = system: hCYP3A4 promoter; test: NHR-promoter luciferase screen, hCYP3A4 promoter; type: cell-based, human; settings: for Luc. act., normalized to lacZ / Normalized Luc. act., normalized to control: CYP3A4 promoter, HR/ligand component; for hCYP3A4 promoter reporter activity: transcription factor +/- ligand, control = 1.00
Procedure, shortened: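 Luciferase reporter read-out after co-expression in CV-1 cells of V5H6-tagged receptor (alone or with RXR), the promoter construct and LacZ. Values are luciferase/LacZ relative to a control lacking NHR or ligand; orphan receptors tested ligand-free.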

[2] = system: hMDR1 promoter; test: NHR-promoter luciferase screen, hMDR1 promoter; type: cell-based, human; settings: for Luc. act., normalized to lacZ / Normalized Luc. act., normalized to control: MDR1 promoter, HR/ligand component; for hMDR1 promoter reporter activity: transcription factor +/- ligand, control = 1.00
Procedure, shortened: (§1)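 CV-1 cells were co-transfected with 50 ng NHR (homodimer or NHR/RXR heterodimer), 100 ng promoter-luciferase construct and 50 ng LacZ. Luciferase was normalized to LacZ and to a no-NHR/no-ligand control.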

[3] = system: mNPY promoter; test: NHR-promoter luciferase screen, mNPY promoter; type: cell-based, mouse; settings: for Results of assays of transcription factor (+/- ligand) with mNPY: Table 6d, luciferase activity relative to control (control = 1.00); for Luc. act., normalized to lacZ / Normalized Luc. act., normalized to control: mNPY promoter, HR component with or without ligand; for Normalized Luc. act., normalized to control: relative to control
Procedure, shortened: as §1

[4] = system: RevErba promoter; test: NHR-promoter luciferase screen, RevErba (RVRa) promoter; type: cell-based; design: key to mRevErba promoter reporter activity / Normalized Luc. act., normalized to control: luciferase activity normalized to lacZ and to control (no NHR/ligand); settings: for Luc. act., normalized to lacZ / Normalized Luc. act., normalized to control / normalized Luc. act. on a logarithmic scale (column without head, Table 33) / negative reciprocal of normalized Luc. act. (fold repression; Table 33): RVRa promoter; for Luc. act., normalized to lacZ / Normalized Luc. act., normalized to control: HR component without or with ligand; for normalized Luc. act. on a logarithmic scale (column without head, Table 33): log10 of activity normalized to control; for mRevErba promoter reporter activity: transcription factor +/- ligand, control = 1.00; for negative reciprocal of normalized Luc. act. (fold repression; Table 33): given only where activity is below control
Procedure, shortened: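 Reporter readout: RevErbα promoter-driven luciferase, corrected for LacZ transfection efficiency and expressed relative to a no-receptor or no-ligand control. Receptors (V5H6-tagged, pcDNA3.1), alone or with RXR, plus any ligand, were expressed in CV-1 cells.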

[5] = system: hPOMC promoter; test: NHR-promoter luciferase screen, hPOMC promoter; type: cell-based, human; settings: for Luc. act., normalized to lacZ / Normalized Luc. act., normalized to control: hPOMC promoter, HR/ligand component; for hPOMC promoter reporter activity: transcription factor +/- ligand, control = 1.00
Procedure, shortened: as §1

B1: ERR2: Estrogen Related Receptor β (NR3B2, ERRb), cDNA driver (protein, UniProt O95718 1-433, looked up)
Steroid hormone receptor ERR2: MSSDDRHLGSSCGSFIKTEPSSPSSGIDALSHHSPSGSSDASGGFGLALGTHANGLDSPPMFAGAGLGGTPCRKSYEDCASGIMEDSAIKCEYMLNAIPKRLCLVCGDIASGYHYGVASCEACKAFFKRTIQGNIEYSCPATNECEITKRRRKSCQACRFMKCLKVGMLKEGVRLDRVRGGRQKYKRRLDSESSPYLSLQISPPAKKPLTKIVSYLLVAEPDKLYAMPPPGMPEGDIKALTTLCDLADRELVVIIGWAKHIPGFSSLSLGDQMSLLQSAWMEILILGIVYRSLPYDDKLVYAEDYIMDEEHSRLAGLLELYRAILQLVRRYKKLKVEKEEFVTLKALALANSDSMYIEDLEAVQKLQDLLHEALQDYELSQRHEEPWRTGKLLLTLPLLRQTAAKAVQHFYSVKLQGKVPMHKLFLEMLEAKV
Luc. act., normalized to lacZ [1]: 15.5
Normalized Luc. act., normalized to control [1]: 3.5
hCYP3A4 promoter reporter activity [1]: 3.49
Luc. act., normalized to lacZ [2]: 0.4
Normalized Luc. act., normalized to control [2]: 1.2
hMDR1 promoter reporter activity [2]: 1.20
Results of assays of transcription factor (+/- ligand) with mNPY [3]: 1.02
Luc. act., normalized to lacZ [3]: 85.4
Normalized Luc. act., normalized to control [3]: 1.0
Luc. act., normalized to lacZ [4]: 42.3
Normalized Luc. act., normalized to control [4]: 1.5
normalized Luc. act. on a logarithmic scale (column without head, Table 33) [4]: 0.18
mRevErba promoter reporter activity [4]: 1.51
Luc. act., normalized to lacZ [5]: 11.6
Normalized Luc. act., normalized to control [5]: 2.7
hPOMC promoter reporter activity [5]: 2.70

B2: TR2: Testicular Orphan Nuclear Receptor 2 (NR2C1), cDNA driver (protein, UniProt P13056 1-603, looked up)
Nuclear receptor subfamily 2 …: MATIEEIAHQIIEQQMGEIVTEQQTGQKIQIVTALDHNTQGKQFILTNHDGSTPSKVILARQDSTPGKVFLTTPDAAGVNQLFFTTPDLSAQHLQLLTDNSPDQGPNKVFDLCVVCGDKASGRHYGAVTCEGCKGFFKRSIRKNLVYSCRGSKDCIINKHHRNRCQYCRLQRCIAFGMKQDSVQCERKPIEVSREKSSNCAASTEKIYIRKDLRSPLTATPTFVTDSESTRSTGLLDSGMFMNIHPSGVKTESAVLMTSDKAESCQGDLSTLANVVTSLANLGKTKDLSQNSNEMSMIESLSNDDTSLCEFQEMQTNGDVSRAFDTLAKALNPGESTACQSSVAGMEGSVHLITGDSSINYTEKEGPLLSDSHVAFRLTMPSPMPEYLNVHYIGESASRLLFLSMHWALSIPSFQALGQENSISLVKAYWNELFTLGLAQCWQVMNVATILATFVNCLHNSLQQDKMSTERRKLLMEHIFKLQEFCNSMVKLCIDGYEYAYLKAIVLFSPDHPSLENMEQIEKFQEKAYVEFQDYITKTYPDDTYRLSRLLLRLPALRLMNATITEELFFKGLIGNIRIDSVIPHILKMEPADYNSQIIGHSI
Luc. act., normalized to lacZ [1]: 2.0
Normalized Luc. act., normalized to control [1]: 0.4
hCYP3A4 promoter reporter activity [1]: 0.44
Luc. act., normalized to lacZ [2]: 0.3
Normalized Luc. act., normalized to control [2]: 1.0
hMDR1 promoter reporter activity [2]: 1.01
Results of assays of transcription factor (+/- ligand) with mNPY [3]: 1.27
Luc. act., normalized to lacZ [3]: 106.6
Normalized Luc. act., normalized to control [3]: 1.3
Luc. act., normalized to lacZ [4]: 52.3
Normalized Luc. act., normalized to control [4]: 1.9
normalized Luc. act. on a logarithmic scale (column without head, Table 33) [4]: 0.27
mRevErba promoter reporter activity [4]: 1.87
Luc. act., normalized to lacZ [5]: 15.7
Normalized Luc. act., normalized to control [5]: 3.6
hPOMC promoter reporter activity [5]: 3.65

B3: TR4: Testicular Orphan Nuclear Receptor 4 (NR2C2), cDNA driver (protein, UniProt P49116 1-596, looked up)
Nuclear receptor subfamily 2 …: MTSPSPRIQIISTDSAVASPQRIQIVTDQQTGQKIQIVTAVDASGSPKQQFILTSPDGAGTGKVILASPETSSAKQLIFTTSDNLVPGRIQIVTDSASVERLLGKTDVQRPQVVEYCVVCGDKASGRHYGAVSCEGCKGFFKRSVRKNLTYSCRSNQDCIINKHHRNRCQFCRLKKCLEMGMKMESVQSERKPFDVQREKPSNCAASTEKIYIRKDLRSPLIATPTFVADKDGARQTGLLDPGMLVNIQQPLIREDGTVLLATDSKAETSQGALGTLANVVTSLANLSESLNNGDTSEIQPEDQSASEITRAFDTLAKALNTTDSSSSPSLADGIDTSGGGSIHVISRDQSTPIIEVEGPLLSDTHVTFKLTMPSPMPEYLNVHYICESASRLLFLSMHWARSIPAFQALGQDCNTSLVRACWNELFTLGLAQCAQVMSLSTILAAIVNHLQNSIQEDKLSGDRIKQVMEHIWKLQEFCNSMAKLDIDGYEYAYLKAIVLFSPDHPGLTSTSQIEKFQEKAQMELQDYVQKTYSEDTYRLARILVRLPALRLMSSNITEELFFTGLIGNVSIDSIIPYILKMETAEYNGQITGASL
Luc. act., normalized to lacZ [1]: 7.7
Normalized Luc. act., normalized to control [1]: 1.7
hCYP3A4 promoter reporter activity [1]: 1.74
Luc. act., normalized to lacZ [2]: 0.5
Normalized Luc. act., normalized to control [2]: 1.6
hMDR1 promoter reporter activity [2]: 1.57
Results of assays of transcription factor (+/- ligand) with mNPY [3]: 2.86
Luc. act., normalized to lacZ [3]: 239.8
Normalized Luc. act., normalized to control [3]: 2.9
Luc. act., normalized to lacZ [4]: 26.5
Normalized Luc. act., normalized to control [4]: 0.9
negative reciprocal of normalized Luc. act. (fold repression; Table 33) [4]: −1.054
normalized Luc. act. on a logarithmic scale (column without head, Table 33) [4]: −0.02
mRevErba promoter reporter activity [4]: 0.95
luciferase/LacZ, hPOMC (selected results) ([5]; hPOMC promoter-luciferase, NHR +/- ligand, control = 1.0): 11.8
Luc. act., normalized to lacZ [5]: 50.7
Normalized Luc. act., normalized to control [5]: 11.8
hPOMC promoter reporter activity [5]: 11.80

B4: HNF4g: Hepatocyte Nuclear Factor γ (NR2A2), cDNA driver (protein, UniProt Q14541 1-408, looked up)
Hepatocyte nuclear factor …: MNTTDNGVNCLCAICGDRATGKHYGASSCDGCKGFFRRSIRKSHVYSCRFSRQCVVDKDKRNQCRYCRLRKCFRAGMKKEAVQNERDRISTRRSTFDGSNIPSINTLAQAEVRSRQISVSSPGSSTDINVKKIASIGDVCESMKQQLLVLVEWAKYIPAFCELPLDDQVALLRAHAGEHLLLGATKRSMMYKDILLLGNNYVIHRNSCEVEISRVANRVLDELVRPFQEIQIDDNEYACLKAIVFFDPDAKGLSDPVKIKNMRFQVQIGLEDYINDRQYDSRGRFGELLLLLPTLQSITWQMIEQIQFVKLFGMVKIDNLLQEMLLGGASNDGSHLHHPMHPHLSQDPLTGQTILLGPMSTLVHADQISTPETPLPSPPQGSGQEQYKIAANQASVISHQHLSKQKQL
Luc. act., normalized to lacZ [1]: 1.8
Normalized Luc. act., normalized to control [1]: 0.4
hCYP3A4 promoter reporter activity [1]: 0.40
Luc. act., normalized to lacZ [2]: 0.2
Normalized Luc. act., normalized to control [2]: 0.8
hMDR1 promoter reporter activity [2]: 0.75
Results of assays of transcription factor (+/- ligand) with mNPY [3]: 0.96
Luc. act., normalized to lacZ [3]: 80.7
Normalized Luc. act., normalized to control [3]: 1.0
Luc. act., normalized to lacZ [4]: 28.15
Normalized Luc. act., normalized to control [4]: 1.0
normalized Luc. act. on a logarithmic scale (column without head, Table 33) [4]: 0.00
mRevErba promoter reporter activity [4]: 1.01
Luc. act., normalized to lacZ [5]: 5.3
Normalized Luc. act., normalized to control [5]: 1.2
hPOMC promoter reporter activity [5]: 1.23

B5: Erb: Estrogen Receptor β (NR3A2, ERb), cDNA driver (protein, UniProt Q92731 1-530, looked up)
Estrogen receptor beta: MDIKNSPSSLNSPSSYNCSQSILPLEHGSIYIPSSYVDSHHEYPAMTFYSPAVMNYSIPSNVTNLEGGPGRQTTSPNVLWPTPGHLSPLVVHRQLSHLYAEPQKSPWCEARSLEHTLPVNRETLKRKVSGNRCASPVTGPGSKRDAHFCAVCSDYASGYHYGVWSCEGCKAFFKRSIQGHNDYICPATNQCTIDKNRRKSCQACRLRKCYEVGMVKCGSRRERCGYRLVRRQRSADEQLHCAGKAKRSGGHAPRVRELLLDALSPEQLVLTLLEAEPPHVLISRPSAPFTEASMMMSLTKLADKELVHMISWAKKIPGFVELSLFDQVRLLESCWMEVLMMGLMWRSIDHPGKLIFAPDLVLDRDEGKCVEGILEIFDMLLATTSRFRELKLQHKEYLCVKAMILLNSSMYPLVTATQDADSSRKLAHLLNAVTDALVWVIAKSGISSQQQSMRLANLLMLLSHVRHASNKGMEHLLNMKCKNVVPVYDLLLEMLNAHVLRGCKSSITGSECSPAEDSKSKEGSQNPQSQ
Luc. act., normalized to lacZ [1]: 6.0
Normalized Luc. act., normalized to control [1]: 1.3
hCYP3A4 promoter reporter activity [1]: 1.35
Luc. act., normalized to lacZ [2]: 0.3
Normalized Luc. act., normalized to control [2]: 1.1
hMDR1 promoter reporter activity [2]: 1.06
Results of assays of transcription factor (+/- ligand) with mNPY [3]: 0.79
Luc. act., normalized to lacZ [3]: 66.5
Normalized Luc. act., normalized to control [3]: 0.8
Luc. act., normalized to lacZ [4]: 20.0
Normalized Luc. act., normalized to control [4]: 0.7
negative reciprocal of normalized Luc. act. (fold repression; Table 33) [4]: −1.397
normalized Luc. act. on a logarithmic scale (column without head, Table 33) [4]: −0.15
mRevErba promoter reporter activity [4]: 0.72
Luc. act., normalized to lacZ [5]: 3.2
Normalized Luc. act., normalized to control [5]: 0.7
hPOMC promoter reporter activity [5]: 0.74
